Laboratory results taken from US20070089183.
Substitutions are numbered along the chain they refer to. In names and notes the source's numbering stands.

B1: DWF1(Δ518-539), full length, expressed in planta from 35S::DWF1(Δ518-539) (protein)
chain: MSDLQTPLVRPKRKKTWVDYFVKFRWIIVIFIVLPFSATFYFLIYLGDMWSESKSFEKRQKEHDENVKKVIKRLKGRDASKDGLVCTARKPWIAVGMRNVDYKRARHFEVDLGEFRNILEINKEKMTARVEPLVNMGQISRATVPMNLSLAVVAELDDLTVGGLINGYGIEGSSHIYGLFADTVEAYEIVLAGGELVRATRDNEYSDLYYAIPWSQGTLGLLVAAEIRLIKVKEYMRLTYIPVKGDLQALAQGYIDSFAPKDGDKSKIPDFVEGMVYNPTEGVMMVGTYASKEEAKKKGNKINNVGWWFKPWFYQHAQTALKKGQFVEYIPTREYYHRHTRCLYWEGKLILPFGDQFWFRYLLGWLMPPKVSLLKATQGEAIRNYYHDMHVIQDMLVPLYKVGDALEWVHREMEVYPIWLCPHKLFKQPIKGQIYPEPGFEYENRQGDTEDAQMYTDVGVYYAPGCVLRGEEFDGSEAVRRMEKWLIENHGFQPQYAVSELDEKSFWRMFNGELYEEKTEKEVREAEQAHLETAYAEAD
B2: DWF1(V531D), full length, expressed in planta from 35S::DWF1(V531D) (protein)
chain: MSDLQTPLVRPKRKKTWVDYFVKFRWIIVIFIVLPFSATFYFLIYLGDMWSESKSFEKRQKEHDENVKKVIKRLKGRDASKDGLVCTARKPWIAVGMRNVDYKRARHFEVDLGEFRNILEINKEKMTARVEPLVNMGQISRATVPMNLSLAVVAELDDLTVGGLINGYGIEGSSHIYGLFADTVEAYEIVLAGGELVRATRDNEYSDLYYAIPWSQGTLGLLVAAEIRLIKVKEYMRLTYIPVKGDLQALAQGYIDSFAPKDGDKSKIPDFVEGMVYNPTEGVMMVGTYASKEEAKKKGNKINNVGWWFKPWFYQHAQTALKKGQFVEYIPTREYYHRHTRCLYWEGKLILPFGDQFWFRYLLGWLMPPKVSLLKATQGEAIRNYYHDMHVIQDMLVPLYKVGDALEWVHREMEVYPIWLCPHKLFKQPIKGQIYPEPGFEYENRQGDTEDAQMYTDVGVYYAPGCVLRGEEFDGSEAVRRMEKWLIENHGFQPQYAVSELDEKSFWRMFNGELYEECRKKYRAIGTFMSDYYKSKKGRKTEKEVREAEQAHLETAYAEAD
B3: DWF1(KYR521-523DGD), full length, expressed in planta from 35S::DWF1(KYR521-523DGD) (protein)
chain: B2 chain with K521D, Y522G, R523D, D531V

Molecular target: CaM (endogenous calmodulin of Arabidopsis plants)

Protein	complementation of the dwf1 null mutant (plant phenotype)	complementation of the dwf1 null mutant (plant phenotype, height)
B1	grew like the uncomplemented dwf1 mutants	
B2		showed some degree of phenotype rescue, with round, expanded leaves but unextended petioles at the rosette stage and bushy flowering stems reaching up to 40% of the height of the wild-type plant
B3	showed very slight phenotypic rescue	
